The values that follow come from paper PMC9631798, “Engineered human cytokine/antibody fusion proteins expand regulatory T cells and confer autoimmune disease protection” (Cell reports, 2022).

Residue numbers refer to the chain shown, from its start. Names and notes keep the numbering of the source.

For test [1], the target named is T1, yeast-displayed hIL-2 (residues 1-133) (human, UniProt P60568).
T1 construct: human interleukin-2, residues 1-133; a 3C protease site lies between Aga2 and the cytokine; not shown: Aga2 (yeast agglutinin protein), N-terminal, kept
The test is described as follows: flow cytometry on cells; yeast surface display: hIL-2 or mIL-2 displayed on yeast (Aga2 fusion); serial dilutions of recombinant F5111 antibody, 2 hours at room temperature in PBE (PBS, 0.1% BSA, 1 mM EDTA); detected with anti-human IgG Fc APC; first-order binding model. To be noted: one partner purified.

Test [2] has as its target T2, yeast-displayed mIL-2 (residues 1-149) (Mus musculus, UniProt P04351).
T2 construct: mouse interleukin-2, residues 1-149; a 3C protease site lies between Aga2 and the cytokine; also called mouse IL-2; not shown: Aga2 (yeast agglutinin protein), N-terminal, kept
Described as above. The note with it: one partner purified.

Another test deals with T3, Biotinylated human IL-2 (Homo sapiens, UniProt P60568, biotin on the biotin acceptor peptide (BirA ligase)).
T3 construct: human interleukin-2; limits not restated for this construct (hIL-2 is residues 1-133 in the other constructs); the hexahistidine tag follows the BAP; also called biotinylated hIL-2; hIL-2 (immobilised); source: HEK 293F (gWiz vector), purified (Ni-NTA, SEC), biotinylated with BirA
The test is described as follows: BLI; biotinylated hIL-2, hIL-2Rα or hIL-2Rβ immobilised on streptavidin biosensors; serial dilutions of analyte in PBSA (PBS pH 7.2, 0.1% BSA); 300 s association, 600 s dissociation; equilibrium titration, first-order fit; F5111 IC LN25 and LN35 as SEC peak P3, LN15 as majority peak; cytokine/antibody complexes pre-formed at 1:1 molar ratio, 60 minutes at 37°C. The note with it: both partners purified.

T3 sequence (P60568 21-153): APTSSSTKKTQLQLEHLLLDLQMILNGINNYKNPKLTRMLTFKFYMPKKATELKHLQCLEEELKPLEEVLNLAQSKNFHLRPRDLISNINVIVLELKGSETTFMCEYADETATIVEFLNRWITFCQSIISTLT
T2 sequence (P04351 21-169): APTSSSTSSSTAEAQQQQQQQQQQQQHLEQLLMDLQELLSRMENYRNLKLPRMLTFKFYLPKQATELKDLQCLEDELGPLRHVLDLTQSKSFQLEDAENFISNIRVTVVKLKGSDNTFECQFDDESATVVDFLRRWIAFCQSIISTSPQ
T1 sequence (P60568 21-153): as the sequence (P60568 21-153) above

B1: F5111 antibody (antibody, V domains shown)
VH: QLQLQESGPGLVKPSQTLSLTCTVSGGSISSGGYYWSWIRQHPGKGLEWIGYIYYSGSTYYNPSLKSRVTISVDTSKNQFSLKLSSVTAADTAVYYCARTPTVTGDWFDPWGRGTLVTVSS
VL: NFMLTQPHSVSESPGKTVTISCTRSSGSIASNYVQWYQQRPGSSPTTVIYEDNQRPSGVPDRFSGSIDSSSNSASLTISGLKTEDEADYYCQSYDSSNVVFGGGTKLTVL
notes: human IgG1 constant heavy chain; human lambda constant chain; human IgG1 lambda; anti-hIL-2; also called F5111 Ab; F5111 human immunoglobulin G1 (IgG1) antibody; source: HEK 293F, transient co-transfection of HC and LC plasmids, purified (protein G, SEC); copies: 2 + 2
Regarding B1, the binding result was “binds” in test [1], “no binding” in test [2] and “binds” with Biotinylated human IL-2.

B2: F5111.2 Antibody (N297A) (antibody, V domains shown)
VH: B1 VH with Y55K, T59A, N62S
VL: B1 VL with S93T, S97I, N98D, V100Y
notes: as the VH of m21 (F5111.2; human IgG1 constant heavy chain with N297A in the Fc region; 297 is EU numbering); as the VL of m21 (F5111.2); human lambda constant chain; in all studies the F5111.2 antibody includes N297A; the isotype platform is stated for F5111 only; source: HEK 293F, transient co-transfection, purified (protein G, SEC); copies: 2 + 2
As for B2, in the test with Biotinylated human IL-2, the binding result is on record as “binds”.
